From the nanobody polyreactivity screen of Harvey et al. (2022)

Assay: yeast display, Sf9 membrane polyspecificity reagent, FACS + sequencing; frameworks hold sequencing errors
How it was run: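 Sorting gates, low and high (top ~1%), were placed on anti-HA fluorescence to track expression and on streptavidin fluorescence to track reagent binding. A clone's polyreactivity label is taken from the gate it came out of. The reagent was 10% biotinylated, detergent-solubilized Sf9 membrane, applied for 1 hour at 4 °C to galactose-induced yeast display cells.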

QVQLVESGGGLVQAGGSLRLSCAASGSTFDRYAMGWYRQAPGKERELVAAISCSGGRTYYADSVKGRFTISRDNEKNTVYLQMNSLKPEDTAVYYCATVSRSSLAYIKYDYWGQGTQVTVSA
polyreactivity (PSR sort gate): high polyreactivity

QVQLVESGGGLVQAGGSLRLSCAASGSIFHPYTMGWYRQAPGKERELVAAISWSGGNTNYADSVKGRFTISRDNAKNTVYLQMNSLKPEDTAVYYCNKATNLSGGYDSWGQGTQVTVSS
polyreactivity (PSR sort gate): low polyreactivity

QDQLVESGGGLVQAGGSLRLSCAASGFTLSINAMGWYRQAPGKERELVAGISWSGGSTYYADSVKGRFTISRDNAKNTVYLQMNSLKPEDTAVYYCNADIYPDRYGSTNYDFNYWGQGTQVTVSS
polyreactivity (PSR sort gate): low polyreactivity

QVQLVESGGGLVQAGGSLRLSCAASGYIFARYAMGWYRQAPGKERELVASISRRGTSTYYADSVKGRFTISRDNAKNTDYLQMNSLKPEDTAVYYCNKEYYIYRTGTIGERSDMGYWGQGTQVTVSS
polyreactivity (PSR sort gate): high polyreactivity

QVQLVESGGGLVQAGGSLRLSCAASGYIFRSNAMGWYRQAPGKERELVAAISGGGRTNYADSVKGRFTISRDNAKNTVYLQMNSLKPEDTAVYYCAAGGYYQRTRGYWGQATQVTVSS
polyreactivity (PSR sort gate): high polyreactivity

QVQLVESGGGLVQAGGSLRLSCAASGITFVPNAMGWYRQAPGKERELVAAINNGGSTYYADSVKGRFTISRDNAKNTVYLQMNSLKPEDTAVYYCAAVSLSTVRGYYYWGQGTQVTVSS
polyreactivity (PSR sort gate): low polyreactivity

QLQLVESGGGLVQAGGSLRLSCAASGYIFEFYAMGWYSQARGKERELVDAIRWNGGTYYADSVKGRFTISRDNAKNTVYLQMNSLKPEDTAVYDCSASRYYRYKIGYVSRAMDYWGQGTQVTVSS
polyreactivity (PSR sort gate): high polyreactivity

QVQLVESGGGLVQAGGSLRLSCAASGSTFGYYAMGWYRQAPGKERELVAAITWGGASTDYADSVKGRFTISRDNAKNTVYLQMNSLKPEDTAVYYCAKDNWDNPRPTSEMDYWGQGTQVTVSS
polyreactivity (PSR sort gate): low polyreactivity

QVQLVESGGGLVQAGGSLRLSCAASGFTFPRYAMGWYRQAPGKERELVAAITSGDRTYYADSVKGRFTISRDNAKNTVYLQMNSLKPEDTAVYYCARVPDTEGEYWGQGTQVTVSS
polyreactivity (PSR sort gate): high polyreactivity

QVQLVESGGGLVQAGGSLRLSCAASGNTFPFNAMGWYRQAPGKERELVAAISRGGSTYYADSVKGRFTISRDNAKNTVYLQMNSLKPDDTAVYYCAAGYRRQGYGGYDYWGQGTQVTVSS
polyreactivity (PSR sort gate): high polyreactivity

QVQLVESGGGLVQAGGSLRLSCAASGFIFSTYAMGWYRQAPGKERELVAAITRTGTRTYYADSVKGRFTISRDNAKNTVYLQMNSLKPEDTAVYYCAARAGGEAYGSRYGYWGQGTQVTVSS
polyreactivity (PSR sort gate): high polyreactivity

QVQLVESGGGLVHAGGSLRLSCAASGRTFRLYVMGWYRQAPGKERELVASITRGTGTDYADSVKGRFRISRDNAKNTVYLQMNSLKPEDTAVYYCNVKYGQPIYGEFDYWGQGTQVTVSS
polyreactivity (PSR sort gate): low polyreactivity

QVQLVESGGGLVQAGGSLRLSCAASGRTFYNTMGLYRQAPGKERELVAAISRGGITNYADSVKGRFTISRDSAKNTGDLQMHSLKPEDTAVYYCNAEPKRYYYYYKFDSWGQGTQVTVSS
polyreactivity (PSR sort gate): high polyreactivity

QVQLVESGGGLVQAGGSLRLSCAASGAIFFFNAMGWYRQAPGKEREFVAAITSSSGRTYYADSVKGRFTISRDNAKNSVYLQMNSLKPEDTAVYSCDADWAWLQWAYDYWGQGTKVTVSS
polyreactivity (PSR sort gate): low polyreactivity

QVQLVESGGGLVQAGGSLRLSCAASGRTFTVYPMGWYRQAPVKEREFVAAITERGGSTYYADSVKGRFTISRDNAKNTVYLQMNSLKPEDTAVYYCAAVYYWRPGWYVRFDYWGQGTQVTVSS
polyreactivity (PSR sort gate): low polyreactivity

QFQLVDSRGGLVQAGGSLRLSCAASGAIFGGYAMGWYRTAPGKARELVAGSTRSGGSTYYADSVKGRFTISRDNPKNTVYLQMNSLKPEDTAVYYCAVEIQFYRSPRIVRSYDYWGHGTQVTVSS
polyreactivity (PSR sort gate): low polyreactivity

QVQLVESGGGLVQAGGSLRLSCAASGNIFVYNAMGWYRQAPGKEREFVAAIDSGGSTYYADSVKGRFTISRDNAKNTVYLQMNSLKPEDTAVYYCARAVVQSRGPPRYKTPYDYWGQGTQVTVSS
polyreactivity (PSR sort gate): low polyreactivity

QVQLVESGGGLVQAGGSLRLSCAASGFIYVYAMGWYRQPPRKERELVAAITATGDSTYYADSVKGRFTISRDNAKNTVYLQMNSLKPEDTAVYYCAAEWHYFVTMYYWGQGTQVTVSS
polyreactivity (PSR sort gate): low polyreactivity

QVQLVESGGGLVQAGGSLRLSCAASGSIFGYYAMGWYRQAPGKERELVAAITWSGDSTYYADSVKGRFTISRDNAKNTVYLQMNSLKPEDTAVYYCAARQFVHTRYFSFGYWGQGTQVTVSS
polyreactivity (PSR sort gate): low polyreactivity

QVQLVESGGGLVQAGGSLRLSCAASGITFSRYAMGWYRQAPGTERELVAAITSSGGSTYYADSVKGRFTISRDNAKNTVYLQMNSLKPEDTAVYYCAATSYYTREQYYYWGQGTQVTVSS
polyreactivity (PSR sort gate): high polyreactivity

QVQLVESGGGLVQAGGSLSLSCAATGTNFCHNAMGWYRPAPWKERELGAGITSVGSTYFAYSVKGRFTISRDNAKNTVYLQMNSLKPEDTAVYYSAKGYDFRRSYEYWGQGTQVNVSS
polyreactivity (PSR sort gate): low polyreactivity

QVQLVESGGGLLQAGGSLRLSCAASGSTCHRNTMGWSRQAPGKESELVAGISLRGVRTYYADSVKSRFTISRDNAKNTVYLQMNSLKPEDTAVYYCAAGGPYTRNFKLGYWGQGTQVTVSS
polyreactivity (PSR sort gate): high polyreactivity

QVQLVESGGGLVQAGGSLRLSCAASGSIFWSYDMGWYRQAPGKERELVPTITSGDSTYYADSVKGRFTISRDNAKNTVYLQMNSLKPEDTAVYYCAAGTYYRRTYWHREYDYWGQGTQVTVSS
polyreactivity (PSR sort gate): low polyreactivity

QVQLVESGGGLVQAGGSLRLSSAASGNIFYGYAIGWYRQAPGKERELVARINWSGTRTYYADSVKGRFTISRDNAKNTVYLQMNSLKPEDTAVYYCAADRYRKYYRRYYYWGQGTQVTVSS
polyreactivity (PSR sort gate): high polyreactivity

QVQLVESGGGLVQAGGSLRLSCAASGRISYYYMGWYRQAPGKERELVAAISWNGGRTYYADSVKGRFTISRDNAKNTVYLQMNSLKPEDTAVYYCAAYTYSFRANHDYWGQGTQVTVSS
polyreactivity (PSR sort gate): high polyreactivity

QVQLVESGGGLVQAGGSLRLSCAASGITFNYYAMGWYRQAPGKERELVAVISSSGGRTYYADSVKGRFTISRDNAKNTVYFQMNSLKPEDTAVYYCGAGCSVAFYYWGQGTQVTVSS
polyreactivity (PSR sort gate): high polyreactivity

QVQLVESGGGLVQAGGSLRLSCAASGRIFYDNTMGWYRQAPGKERELVAVISWSTGGTYADSVKGRFTISRDNAKNTVYLQMNSLKPEDTAVYYCATPLGYGPDLDYWGQGTQVTVSS
polyreactivity (PSR sort gate): low polyreactivity

QVQLVESGGGLVQAGGSLRLSCAASGRTIYVYAMGWYRQAPGKERELVADINWSGGSTYYADSVKGRFTISRDNAKNTVYLQMNSLKPEDTAVYYCAADDWVRRRSHSGPEGYVYWGQGTQVTVSS
polyreactivity (PSR sort gate): low polyreactivity

QVQLVESGGGLVQAGGSLRLSCAASGRTFFKYAMGWYRQAPGKERELVAAISSVGSTYYADSVKGRFTISRDNAKNSVYLQMNSLKPEDTAVYYCAARKNRAYGYWGQGTQVTVSS
polyreactivity (PSR sort gate): high polyreactivity

QVQLVESGGGLVQAGGSLRLICAASGFTFGYYAMGWYRQAPRKERELVAAISYTGGSTYYADSVKGRFTISRDNAMNTVYLQMNSLKPEDTAVYYCNAYSALYGSYNYWGQGTQVTVSS
polyreactivity (PSR sort gate): high polyreactivity

QVQLVESGGGLVQAGGSLRLSCAASGLIFDYYAMGWYRQAPGKERELVASINNRGGSTFYADSVKGRFTISRDNAKNTVYLQMNSLKPEDTAVYYCNAVRRTGGHGDYWGQGTQVTVSS
polyreactivity (PSR sort gate): high polyreactivity

QVQLVESGGGLVQAGGSLRLSCAASGSISFINAMGWYRQAPGKERELVAAISGSGGSTYYADSVKGRFTISRDNAKNTVYLQMNSLKPEDTAVYYCAADYRIHWYIAYGYWGQGTQVTVSS
polyreactivity (PSR sort gate): low polyreactivity

QVQLVESGGGLVQAGGSLRLSCAASGSIFRGYALGWYRQAPGKERALVAAITKRGGNTYYADSVKGRFTISRDHAKNTVYLQMNSLKPEDTAVYYCAKAGWGKWVYAQMVYWGQGTQVTVSS
polyreactivity (PSR sort gate): high polyreactivity

QVQLVESGGGLVQAGGSLRLSCAASGIIFRNYAMGLYRQAPGKEREFVAAISGSGTSTYYADSVKGRFTISRDNAKNTVYLQMNSLKPEDTAVYYCAAEKYSYPYDYEYWGQGTQVTVSS
polyreactivity (PSR sort gate): high polyreactivity

QVQLVESAGGLVQAGGSLRLSCAASGFTFLYYAMGWYRKAPGKEREFVAAISYTGGSTYYADSVKGRFTISRDNAKNTVYLQMNSLKPEDTAVYYCAVDGYYWFGSIFDYWGQGTQVTVSS
polyreactivity (PSR sort gate): low polyreactivity

QVQHGESGGGLVQAGGSLRLSCAASGTTLAAYTMGWYRQAPGKERELVAAINSGGGTNYADSVKGRFTISRDNAKNTVYLQMNSLKPEDTAVYYCAKVVFVRGAPGYYWGQGTQVTVSS
polyreactivity (PSR sort gate): high polyreactivity

QVQLVESGGGLVQAGGSLRLSCAASGSIFEFNTMGWYRQAPGKERELVAAISSADTTNYADSVKGRFTISRDNAKNTVYLQMNSLKPEDTAVYYCNKELHLSATLRVLGFDYWGQGTQVTVSS
polyreactivity (PSR sort gate): low polyreactivity

QVQLVESGGGLVQAAGSLRLSCAASGSTFAANAMGWYRQAPGKERELVAAITWTGGSTYYADSVKGRFTISRDNAKNTVYLQMNSLKPEDTAVYYCARRSYGRYYYRYRAYDYWGQGTQVTVSS
polyreactivity (PSR sort gate): high polyreactivity

QVQLVESGGGLVQAGGSLRLSCAASGIIFGIYARGWYRQAPGKERELVAAIRYRGGNTNYADSVKGRFTISRDNAKNTVYLQMNSLKPEDTAVYYCAAKRFADPYYYWGQGTQVTVSS
polyreactivity (PSR sort gate): high polyreactivity

QVQLVESGGGLVQGGSLRLSCAASGFTFPIYVMGGYRQAPGKERELVASISSVGSTNYADSVKGRFTISRDNAKNTVYLQMNSLKPEDTAVYYCNADAPNSYGGFDYWGQGTQVTVSS
polyreactivity (PSR sort gate): low polyreactivity

QVQLVESGGGLVQAGGTLRLSCGASGGTFYLYTMGWYRPAPGKERELVAAISRGGSTNYADSVKGRFTISRDNAKNTVYLLMNSLIPEDTAVFYCAAVRSTGFRYYYADEYDYWGQGTQVTVSS
polyreactivity (PSR sort gate): low polyreactivity

QVQLVESGGGLVQAGGSLRLSCAASVRTFYIYAMGWYRQAPGKERELDAAITWSGGTTYYADSVKGRFTISRDIAINTVYLQMNSLKPEDTAVYYCAADRYGFYLESYYCGQGTQVTVSS
polyreactivity (PSR sort gate): low polyreactivity

QVQRVESGGGLVQAGGSLRLSCAASGSTFGNAMGWYRQAPGKERELVAAISSRGDRTYYADSVQGRFTISRDNAKNTVYLQMNSLKPEDTAVYYCAKDGYPNKYDYWGQGTQVTVSS
polyreactivity (PSR sort gate): high polyreactivity
